The experiment deals with T1, CD20 antigen on Raji lymphoblastoid B cells (UniProt P11836).
T1 sequence (looked up): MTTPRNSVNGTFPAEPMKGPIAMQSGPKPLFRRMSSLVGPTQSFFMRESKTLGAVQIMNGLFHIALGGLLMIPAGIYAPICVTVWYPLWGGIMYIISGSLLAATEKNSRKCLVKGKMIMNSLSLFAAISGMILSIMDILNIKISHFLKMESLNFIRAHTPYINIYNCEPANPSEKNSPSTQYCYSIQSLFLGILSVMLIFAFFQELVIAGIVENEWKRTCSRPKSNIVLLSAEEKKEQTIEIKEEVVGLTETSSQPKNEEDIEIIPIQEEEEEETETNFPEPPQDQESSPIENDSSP
The experiment can be described thus: flow cytometry on Raji cells. (Flow cytometry measures light scatter and fluorescence of single cells or particles in a stream.)

B1: R603 chimeric anti-CD20 antibody (LFB-R603), IgG1 with wild-type Fc (antibody, INN chains, looked up, V domains shown, part only)
VH: QAYLQQSGAELVRPGASVKMSCKASGYTFTSYNMHWVKQTPRQGLEWIGGIYPGNGDTSYNQKFKGKATLTVGKSSSTAYMQLSSLTSEDSAVYFCARYDYNYAMDYWGQGTSVTVSS
VL: QIVLSQSPAILSASPGEKVTMTCRASSSVSYMHWYQQKPGSSPKPWIYATSNLASGVPARFSGSGSGTSYSFTISRVEAEDAATYYCQQWTFNPPTFGGGTRLEIK
modifications: IgG1
In turn, B1 yielded an Ag binding MFI (Arbitrary Unit) of 123.
